The source of these data is paper PMC6815410, “Characterization of Xi-class mycothiol S-transferase from Corynebacterium glutamicum and its protective effects in oxidative stress” (Microbial Cell Factories, 2019).

In data set [1] the test system is CC(C)(C)OO. In words: purified protein. The note with it: 500 μM MSH, 4 μM Mtr, 250 μM NADPH, 1 mM EDTA, 50 mM Tris-HCl pH 7.5.
In data set [2] the target is T1, MstX (NCgl1216) (Corynebacterium glutamicum, UniProt Q8NR03, C262S).
T1 construct: gene Cgl1264
In words: MALDI-TOF MS of S-mycothiolated protein. It counts as binding. As to conditions: covalent; mixed disulfide at Cys67; formed with H2O2.

Data set [3] has as its target T2, MstX (NCgl1216) (Corynebacterium glutamicum, UniProt Q8NR03).
T2 construct: gene Cgl1264; full length, 359 residues, 40,619 Da; pET28a His6 fusion from E. coli BL21(DE3), tag cleaved; monomer
The experiment in a line: Mtr-coupled NADPH oxidation at […] nm (thiol transferase assay). It counts as biochemical. As to conditions: 100 mM MSH, 300 μM NADPH, 5 μM Mtr, 50 mM potassium phosphate pH 7.6, 25 °C.

Data set [4] concerns CC(C)(OO)c1ccccc1. The experiment in a line: purified protein. As to conditions: 500 μM MSH, 4 μM Mtr, 250 μM NADPH, 1 mM EDTA, 50 mM Tris-HCl pH 7.5.
Substrate in data set [5]: O=C1O[C@H]([C@@H](O)CO)C(=O)C1=O
The experiment in a line: purified protein. In kind it is biochemical, Corynebacterium glutamicum. The note with it: 100 mM MSH, 300 μM NADPH, 5 μM Mtr, 50 mM potassium phosphate pH 7.6, 25 °C.

For “MstX (NCgl1216) (Corynebacterium glutamicum ATCC 13032)”, in data set [1], the Michaelis-Menten constant (Km) was 301.3 ± 46.62 µM and the kcat was determined as 0.135 ± 0.006 s⁻¹.
For the molecule `CC(=O)N[C@@H](CS)C(=O)NC1[C@@H](O[C@@H]2[C@H](O)[C@H](O)[C@@H](O)[C@H](O)[C@H]2O)O[C@H](CO)[C@@H](O)[C@@H]1O` (stereo partly drawn) [MSH], the “MALDI-TOF MS of S-mycothiolated protein” value in data set [2] is listed as “Pure S-mycothiolated MstX:C262S were confirmed by Matrix-Assisted Laser Desorption/Ionization Time of Flight Mass Spectrometry”.
On to `OCCSSCCO` [HED], for which the Michaelis-Menten constant (Km) in data set [3] worked out at 192 ± 30 µM.

B1: MstX (NCgl1216) (Corynebacterium glutamicum ATCC 13032) (protein)
chain: MANTSSDWAGAPQNASADGEFVRDTNYIDDRIVADVPAGSEPIAQEDGTFHWPVEAGRYRLVAARACPWAHRTVITRRLLGLENVISLGLTGPTHDVRSWTFDLDPNHLDPVLQIPRLQDAYFNRFPDYPRGITVPALVEESSKKVVTNDYPSITIDFNLEWKQFHREGAPNLYPAELREEMAPVMKRIFTEVNNGVYRTGFAGSQEAHNEAYKRLWVALDWLEDRLSTRRYLMGDHITEADIRLYPTLVRFDAVYHGHFKCGRNKITEMPNLWGYLRDLFQTPGFGDTTDFTEIKQHYYITHAEINPTRIVPVGPDLSGFATPHGREKLGGSPFAEGVTLPGPIPAGEEVKNPEPFQK
notes: full length, 359 residues, 40,619 Da; pET28a His6 fusion from E. coli BL21(DE3), tag cleaved; monomer
As to B1, in data set [4], the Michaelis constant (Km) was found to be 328.1 ± 33.27 µM and the kcat worked out at 0.153 ± 0.005 s⁻¹. In data set [5], the Km is 1115 ± 252 µM, the catalytic constant (kcat) worked out at 573 ± 44.3 s⁻¹ and the kcat/Km was 571000 ± 410000 M⁻¹ s⁻¹.
